{
  "source": "paper doi:10.1101/2022.08.13.503841",
  "about": "(bioRxiv, 2022)",
  "proteins": {"B1": {"name": "Chikungunya virus non-structural protein 1 (nsP1) (enzyme)", "chain": "MDPVYVDIDADSAFLKALQRAYPMFEVEPRQVTPNDHANARAFSHLAIKLIEQEIDPDSTILDIGSAPARRMMSDRKYHCVCPMRSAEDPERLANYARKLASAAGKVLDRNISGKIGDLQAVMAVPDTETPTFCLHTDVSCRQRADVAIYQDVYAVHAPTSLYHQAIKGVRLAYWVGFDTTPFMYNAMAGAYPSYSTNWADEQVLKAKNIGLCSTDLTEGRRGKLSIMRGKKLEPCDRVLFSVGSTLYPESRKLLKSWHLPSVFHLKGKLSFTCRCDTVVSCEGYVVKRITMSPGLYGKTTGYAVTHHADGFLMCKTTDTVDGERVSFSVCTYVPATICDQMTGILATEVTPEDAQKLLVGLNQRIVVNGRTQRNTNTMKNYMIPVVAQAFSKWAKECRKDMEDEKLLGVRERTLTCCCLWAFKKQKTHTVYKRPDTQSIQKVQAEFDSFVVPSLWSSGLSIPLRTRIKWLLSKVPKTDLTPYSGDAQEARDAEKEAEEEREAELTLEALPPLQAAQEDVQVEIDVEQLEDRAGA"}},
  "molecular_target": "the molecule itself",
  "assay": "cryo-EM structure",
  "data": [
    {"protein": "B1", "values": [
      {"measurement": "stoichiometry N", "result": 12}
    ]}
  ]
}
